The values that follow come from article PMC2952662.

This experiment addresses N-terminally His6-tagged Akt1 PH domain S2-S128 construct (human). The experiment can be described thus: SPR. In general terms: Surface plasmon resonance follows binding to a sensor surface in real time, without labels.

A word on the Kd: it is a measure of binding affinity in units of concentration. High values mean a looser complex, low ones a tighter complex. Usually koff stands for the rate constant with which the complex falls apart. Take “Akt inhibitor VI, a 15 residue peptide derived from the oncogene TCL1”: the Kd worked out at 1400 nM and the koff amounted to 0.000116 s⁻¹.
